The results in this text go back to publication PMC4031664 (Prion, 2013).

Data set [1] concerns the molecule itself. Put plainly: native gel or EMSA.
Data set [2] concerns the molecule itself.

B1: full-length PrP (mouse PrP 23–231) (natural protein)
chain: not shown
With B1, the binding result in data set [1] was “binds”.

B2: Syrian hamster PrP90–232 (domain or fragment)
chain: not shown
B2: the binding result in data set [1] was “binds”.

B3: PrP-like ectodomain of ZIP5 (domain or fragment)
chain: WVGGSVPNLGPAEQEQNHYLAQLFGLYGENGTLTAGGLARLLHSLGLGRVQGLRLGHHEPPTGRAAPTSGDNFTHRLQEPELSVDIWAGMPLGPSGWGDQEESKAPDLHGSGPSSLDLFQRLLLLDHSLADHLNEDCLNGSQLLVNFGLSPVAPLTPRQFALLCPALLYQIDSRVCIKTPAPAPPGDVLSA
Consider B3, for which the “stoichiometry N” value in data set [2] turned out to be 2.

B4: C-terminal PrP domain (mouse PrP 120–231) (domain or fragment)
chain: not shown
As for B4, the binding result in data set [1] is given as “binds”.
